Biological target: retinoblastoma protein (RB1) (human) (UniProt P06400)
Assay: cell-based or functional assay

Sequence of retinoblastoma protein (RB1) (human) (P06400 2-928 limits assumed): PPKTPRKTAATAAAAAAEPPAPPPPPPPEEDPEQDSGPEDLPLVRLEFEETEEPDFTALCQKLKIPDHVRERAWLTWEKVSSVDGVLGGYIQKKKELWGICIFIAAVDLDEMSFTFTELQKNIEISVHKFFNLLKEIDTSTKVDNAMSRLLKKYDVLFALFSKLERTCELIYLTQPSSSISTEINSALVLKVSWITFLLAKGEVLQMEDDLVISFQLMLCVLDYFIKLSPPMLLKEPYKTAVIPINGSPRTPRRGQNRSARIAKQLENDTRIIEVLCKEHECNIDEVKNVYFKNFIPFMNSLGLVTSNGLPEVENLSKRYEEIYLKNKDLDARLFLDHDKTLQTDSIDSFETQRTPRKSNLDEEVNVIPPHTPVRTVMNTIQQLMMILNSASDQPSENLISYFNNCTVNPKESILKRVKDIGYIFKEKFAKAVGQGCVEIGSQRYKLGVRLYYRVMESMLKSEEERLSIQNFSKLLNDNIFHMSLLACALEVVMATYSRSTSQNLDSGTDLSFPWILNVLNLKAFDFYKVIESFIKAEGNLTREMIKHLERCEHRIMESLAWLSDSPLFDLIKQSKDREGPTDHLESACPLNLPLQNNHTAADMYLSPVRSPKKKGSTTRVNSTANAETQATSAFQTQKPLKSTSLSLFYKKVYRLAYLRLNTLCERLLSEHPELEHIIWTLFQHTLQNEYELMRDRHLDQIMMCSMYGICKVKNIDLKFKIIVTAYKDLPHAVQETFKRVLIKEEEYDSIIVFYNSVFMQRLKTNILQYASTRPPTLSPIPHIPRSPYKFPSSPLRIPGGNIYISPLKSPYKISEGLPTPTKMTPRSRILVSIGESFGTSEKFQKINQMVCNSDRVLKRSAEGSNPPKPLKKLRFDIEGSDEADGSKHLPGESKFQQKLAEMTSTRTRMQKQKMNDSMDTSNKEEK

Substance: Truncated tumor-derived Merkel cell polyomavirus large T antigen LT339 (MCV339 strain, amino acid 1-455)
- survivin protein level in BJ fibroblasts (ECL and quantitative LICOR immunoblotting): 3 fold
